Tests used:
[1] = target: the molecule itself; test: non-reducing SDS-PAGE, disulfide-linked homodimer
Experimental: Fractions of the last SEC were analyzed by SDS-PAGE and Coomassie-blue staining. The position of SP-B is indicated by an arrow.
The extract was subjected to chromatography on a Sepharose LH-20 column to remove phospholipids. Protein fractions were dried, dissolved in the detergent octylglucoside, and further purified by size-exclusion chromatography (SEC).

[2] = target: the molecule itself; test: SEC, then non-reducing and reducing SDS-PAGE

B1: SP-BM purified from bovine lungs (other, UniProt P15781 188-266, looked up)
chain: FPIPIPYCWLCRTLIKRIQAVIPKGVLAMTVAQVCHVVPLLVGGICQCLVERYSVILLDTLLGRMLPQLVCGLVLRCSS
modifications: monomers disulfide-linked through Cys48
notes: domain: SP-BM; also called bovine SP-BM; mature SP-B
[1]
  binding result: binds

B2: recombinant human SP-BM (other)
chain: PIPLPYCWLCRALIKRIQAMIPKGALAVAVAQVCRVVPLVAGGICQCLAERYSVILLDTLLGRMLPQLVCRLVLRCSM
modifications: inter-molecular disulfide bond in the dimer
notes: also called recombinant SP-BM
[2]
  binding result: binds
